# Results as given in patent EP2670776B1.
# Target: Knob F241R/F243S (knob Fc with F241R/F243S mutations) (human) [IgG part: P0DOX5]
# Assay: size exclusion chromatography, against wild-type knob Fc
substance,measurement,value
Knob F241R/F243S (knob Fc with F241R/F243S mutations) (from UniProt P0DOX5 223-449),Reduction in homodimer content,64.5%
